Measured values as given in patent CN114805589A.

Key:
[1] = target: 山羊IgG (山羊 (goat)); experiment: indirect ELISA, IgG coated at 1 ug/mL, HRP goat anti-mouse IgG detection, OD450; details: scale: reciprocal dilution
[2] = target: 绵羊IgG (绵羊 (sheep)); experiment: as above; details: scale: reciprocal dilution
[3] = target: 牛IgG (牛 (bovine)); experiment: as above; details: scale: reciprocal dilution
[4] = target: 山羊IgG (山羊 (goat)); experiment: direct magnetic-particle chemiluminescence, IgG on magnetic particles, HRP-labelled 4C-1 at 1:4000
[5] = target: 绵羊IgG (绵羊 (sheep)); experiment: as above
[6] = target: 牛IgG (牛 (bovine)); experiment: as above

- 效价 (titer) [1]: > 256000
- 效价 (titer) [2]: > 256000
- 效价 (titer) [3]: > 256000
- 发光值 (luminescence value) [4]: > 100000 发光值
- 发光值 (luminescence value) [5]: > 100000 发光值
- 发光值 (luminescence value) [6]: > 100000 发光值
B1: 鼠单克隆抗体 二抗4C-1 (antibody, part only; not given: Light chain variable domain, V domains shown, part only)
VH: QVQLKQSGPELVKPGASVKMSCKASGYTFTSYVIHWVKQKPGQGLEWIGYINPYNDNTEYNEKFKGKATLTSDKSSSTAYMELSSLTSEDSAVYYCARREGGYYVFTYWGQGTLVTVSA
